The text below walks through data of patent US20030219427A1, “TPL-2/COT kinase and methods of use” (priority 1998, published 2003).

The target in series [1] is T1, TPL-2 C-terminus (TPL-2398-467 peptide) (Rattus norvegicus, UniProt Q63562).
T1 construct: a synthetic peptide corresponding to the C-terminus of TPL-2 (residues 398-467); made in house; host or cells: chemical peptide synthesis
The experiment in a line: Surface plasmon resonance (BIAcore) binding to immobilized TPL-2 C-terminal peptide. Particulars: biotinylated TPL-2398-467 on Streptavidin sensor surface, 25° C. As to the method: Interaction between the TPL-2 C-terminus and recombinant p105 proteins was measured by surface plasmon resonance using the BIAcore system (BIAcore AB, Uppsala, Sweden; (Szabo, A., et al. (1995) Curr. Opin. Struct. biol. 5: 699-705)). The C-terminal 70 amino acids of TPL-2 (TPL-2398-467) were synthesised as a biotinylated peptide (conjugated to the equivalent of Cys398 of full length TPL-2) and immobilized on a Streptavidin-coated sensor surface (Sensorchip SA, BIAcore AB). Recombinant p105 proteins were then injected at different concentrations and resonance signals monitored. Dissociation at 25° C. was measured by flushing the TPL-2/p105 complexes with HBS-P buffer (10 MM HEPES-pH7.4, 150 mM NaCl, 0.005% (v/v) polysorbate 20; BIAcore AB). Data were evaluated using BIAevaluation software, version 3.0.2.
(5.3.b) In order to obtain corroborating evidence for the TPL-2 C-terminus binding site on p105, surface plasmon resonance experiments were carried out using the panel of recombinant p105 proteins including p105 1-969, p105 498-969, p105 498-806, p105 497-782 and p105 541-802.
For orientation: SPR reads the build-up and loss of mass on a sensor chip optically.

The target in series [2] is T2, Myc-TPL-2 MEK kinase activity (Rattus norvegicus, UniProt Q63562).
T2 construct: made in house; host or cells: HEK 293 cells, transient transfection, anti-Myc immunoprecipitation
T2 sequence (Q63562 whole entry): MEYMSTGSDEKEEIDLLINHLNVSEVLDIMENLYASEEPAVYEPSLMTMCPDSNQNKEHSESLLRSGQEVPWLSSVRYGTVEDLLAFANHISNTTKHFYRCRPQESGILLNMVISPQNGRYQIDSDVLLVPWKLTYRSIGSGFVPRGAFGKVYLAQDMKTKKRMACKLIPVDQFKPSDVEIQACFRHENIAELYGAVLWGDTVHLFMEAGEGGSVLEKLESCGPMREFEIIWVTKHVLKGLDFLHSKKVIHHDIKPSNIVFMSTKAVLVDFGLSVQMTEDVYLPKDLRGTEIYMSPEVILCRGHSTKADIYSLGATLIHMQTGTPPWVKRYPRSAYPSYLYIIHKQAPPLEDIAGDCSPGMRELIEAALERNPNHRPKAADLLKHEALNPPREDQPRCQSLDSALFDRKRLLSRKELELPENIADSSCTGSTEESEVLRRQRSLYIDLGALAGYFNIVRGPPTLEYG
The experiment in a line: In vitro MEK kinase assay with GST-MEK1(K207A) substrate, Myc-TPL-2. The note with it: equivalent molar concentrations to p105498-969. The series is classed as biochemical. As to the method: Myc-TPL-2 or Myc-TPL-2ΔC were isolated by immunoprecipitation from lysates of transiently transfected 293 cells, as described above. immunoprecipitates were washed four times in Buffer A, followed by two washes in kinase buffer (50 mM Tris-pH7.5, 150 mM NaCl, 5 mM β-glycerophosphate, 2 mM dithiothreitol, 0.1 mM sodium vanadate, 10 mM MgCl2, 1 mM EGTA, 0.01% Brij35). Beads were then resuspended in 50μl of kinase buffer plus the indicated amounts of recombinant p105 protein and incubated at 4° C. for 30 min. […] The supernatant was removed, mixed with an equal volume of 2×sample buffer, Western blotted after 8%-acrylamide SDS-PAGE and probed with anti-phospho-MEK-½ antibody. Immunoprecipitated Myc-TPL-2 or Myc-TPL-2ΔC was eluted with Laemlli sample buffer from the remaining anti-Myc mAb beads and quantified by Western blotting.
Only a small fraction of over-expressed Myc-TPL-2 is associated with p105, presumably due to titration of endogenous p105 protein. The effect of p105 binding on Myc-TPL-2 MEK kinase activity was investigated by incubation of TPL-2 imnmunoprecipitates with recombinant p105498-969 protein prior to in vitro kinase assay. MEK phosphorylation was assayed by Western blotting with anti-phospho-MEK-½ antibody. Control experiments confirmed that p105498-969 protein bound to TPL-2 in vitro. […]

T1 sequence (Q63562 398-467): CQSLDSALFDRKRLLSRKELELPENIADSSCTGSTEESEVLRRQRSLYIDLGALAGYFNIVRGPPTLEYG

B1: p105541-802: recombinant p105 protein, residues 541-802 (protein)
chain: DENGDSVLHLAIIHLHSQLVRDLLEVTSGLISDDIINMRNDLYQTPLHLAVITKQEDVVEDLLRAGADLSLLDRLGNSVLHLAAKEGHDKVLSILLKHKKAALLLDHPNGDGLNAIHLAMMSNSLPCLLLLVAAGADVNAQEQKSGRTALHLAVEHDNISLAGCLLLEGDAHVDSTTYDGTTPLHIAAGRGSTRLAALLKAAGADPLVENFEPLYDLDDSWENAGEDEGVVPGTTPLDMATSWQVFDILNGKPYEPEFTSDD
For the molecule B1, the “binding to the TPL-2 peptide (affinity constants)” value in series [1] is on record as “did not detectably bind”.

B2: p105498-969(ΔDD): recombinant p105 498-969 protein which lacks the p105 death domain (protein)
chain: QDNLFLEKAMQLAKRHANALFDYAVTGDVKMLLAVQRHLTAVQDENGDSVLHLAIIHLHSQLVRDLLEVTSGLISDDIINMRNDLYQTPLHLAVITKQEDVVEDLLRAGADLSLLDRLGNSVLHLAAKEGHDKVLSILLKHKKAALLLDHPNGDGLNAIHLAMMSNSLPCLLLLVAAGADVNAQEQKSGRTALHLAVEHDNISLAGCLLLEGDAHVDSTTYDGTTPLHIAAGRGSTRLAALLKAAGADPLVENFEPLYDLDDSWENAGEDEGVVPGTTPLDMATSWQVFDILNGKPYEPEFTSDDSPVKTTSQAHSLPLSPASTRQQIDELRDSDSVCDSGVETSFRKLSFTESLTSGASLLTLNKMPHDYGQEGPLEGKI
B2: the “effect on Myc-TPL-2 MEK kinase activity” value in series [2] is “did not affect”.
